PMC10815899, “Glyceraldehyde 3-Phosphate Dehydrogenase on the Surface of Candida albicans and Nakaseomyces glabratus Cells—A Moonlighting Protein That Binds Human Vitronectin and Plasminogen and Can Adsorb to Pathogenic Fungal Cells via Major Adhesins Als3 and Epa6” (International Journal of Molecular Sciences, 2024)
Where “and” joins values, the source holds several entries; their conditions need not be identical. Equal entries are not always repeated.

How the values were obtained:
[1] = biological target: the molecule itself; assay: SEC; Superdex 200 HR 10/50, calibrated with molecular mass standards, 0.5 mL/min; buffer 20 mM Tris-HCl pH 6.7 (methods) or 50 mM NaH2PO4, 150 mM NaCl pH 7.0
[2] = biological target: T1, agglutinin-like sequence protein 3 (full-length Als3) on S. cerevisiae cells (C. albicans, UniProt Q59L12 18-1134); assay: whole-cell binding assay (biotin-labeled protein, SA-HRP/TMB); S. cerevisiae cells presenting the adhesin (3 × 10^7 cells per tube); biotin-labeled CaGAPDH 0–400 nM, 1 h at 37 °C; one-site specific binding model, estimated dissociation constants; settings: one partner purified
T1 construct: source: S. cerevisiae, overexpressed and surface-presented, on cells
T1 sequence: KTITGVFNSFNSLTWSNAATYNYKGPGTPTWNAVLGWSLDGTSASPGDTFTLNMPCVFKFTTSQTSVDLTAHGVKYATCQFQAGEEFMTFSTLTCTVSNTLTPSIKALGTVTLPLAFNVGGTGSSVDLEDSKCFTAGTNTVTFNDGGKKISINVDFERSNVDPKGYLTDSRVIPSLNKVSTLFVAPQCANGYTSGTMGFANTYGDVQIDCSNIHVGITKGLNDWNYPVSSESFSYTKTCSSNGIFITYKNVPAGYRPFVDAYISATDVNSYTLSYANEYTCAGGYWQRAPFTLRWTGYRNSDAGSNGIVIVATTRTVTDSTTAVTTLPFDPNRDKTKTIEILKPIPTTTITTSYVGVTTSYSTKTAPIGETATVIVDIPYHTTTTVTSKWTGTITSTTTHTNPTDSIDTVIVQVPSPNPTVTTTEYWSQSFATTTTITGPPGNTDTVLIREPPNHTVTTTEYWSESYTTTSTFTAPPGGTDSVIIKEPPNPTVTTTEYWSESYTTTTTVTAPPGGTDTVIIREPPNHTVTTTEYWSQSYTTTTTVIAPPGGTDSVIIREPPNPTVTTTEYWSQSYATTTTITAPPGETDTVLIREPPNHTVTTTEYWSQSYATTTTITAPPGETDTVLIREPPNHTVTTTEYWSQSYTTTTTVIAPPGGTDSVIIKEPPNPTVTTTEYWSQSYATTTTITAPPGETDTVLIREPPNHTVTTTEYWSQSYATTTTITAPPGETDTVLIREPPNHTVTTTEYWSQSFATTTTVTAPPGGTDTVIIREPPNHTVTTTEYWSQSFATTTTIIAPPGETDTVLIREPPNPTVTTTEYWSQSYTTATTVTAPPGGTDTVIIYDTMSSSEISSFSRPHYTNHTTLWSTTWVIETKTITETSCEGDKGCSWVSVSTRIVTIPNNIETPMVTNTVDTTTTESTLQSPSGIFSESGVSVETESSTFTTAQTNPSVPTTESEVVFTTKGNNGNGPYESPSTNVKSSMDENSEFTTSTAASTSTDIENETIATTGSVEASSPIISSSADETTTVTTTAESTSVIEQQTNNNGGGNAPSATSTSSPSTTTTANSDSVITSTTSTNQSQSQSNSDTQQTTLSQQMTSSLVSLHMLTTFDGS

[3] = biological target: T2, Eap1 (epithelial adhesin protein 1) on S. cerevisiae cells (C. albicans, UniProt G1UBC2 19-632); assay: as above; settings: one partner purified
T2 construct: Eap1 adhesin of C. albicans presented on the surface of S. cerevisiae; source: S. cerevisiae, overexpressed and surface-presented, on cells
T2 sequence: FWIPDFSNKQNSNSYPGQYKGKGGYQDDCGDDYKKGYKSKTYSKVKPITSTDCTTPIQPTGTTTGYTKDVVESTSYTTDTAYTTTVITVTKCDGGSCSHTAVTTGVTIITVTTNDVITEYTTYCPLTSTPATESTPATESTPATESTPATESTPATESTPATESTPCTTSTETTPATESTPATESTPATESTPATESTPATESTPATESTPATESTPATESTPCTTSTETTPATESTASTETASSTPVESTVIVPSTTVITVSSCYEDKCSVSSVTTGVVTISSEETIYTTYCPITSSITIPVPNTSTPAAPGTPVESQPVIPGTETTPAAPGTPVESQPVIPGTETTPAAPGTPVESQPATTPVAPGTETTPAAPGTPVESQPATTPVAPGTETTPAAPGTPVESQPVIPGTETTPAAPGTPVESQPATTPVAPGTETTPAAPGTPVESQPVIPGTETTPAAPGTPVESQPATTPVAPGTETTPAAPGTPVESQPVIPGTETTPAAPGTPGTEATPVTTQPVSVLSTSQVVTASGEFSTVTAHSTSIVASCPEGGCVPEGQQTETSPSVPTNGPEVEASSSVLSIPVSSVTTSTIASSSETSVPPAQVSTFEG

[4] = biological target: T3, Hwp1 (hyphal wall protein 1) on S. cerevisiae cells (C. albicans, UniProt P46593 28-613); assay: as above; settings: one partner purified
T3 construct: Hyphal wall protein 1 of C. albicans presented on the surface of S. cerevisiae; source: S. cerevisiae, overexpressed and surface-presented, on cells
T3 sequence: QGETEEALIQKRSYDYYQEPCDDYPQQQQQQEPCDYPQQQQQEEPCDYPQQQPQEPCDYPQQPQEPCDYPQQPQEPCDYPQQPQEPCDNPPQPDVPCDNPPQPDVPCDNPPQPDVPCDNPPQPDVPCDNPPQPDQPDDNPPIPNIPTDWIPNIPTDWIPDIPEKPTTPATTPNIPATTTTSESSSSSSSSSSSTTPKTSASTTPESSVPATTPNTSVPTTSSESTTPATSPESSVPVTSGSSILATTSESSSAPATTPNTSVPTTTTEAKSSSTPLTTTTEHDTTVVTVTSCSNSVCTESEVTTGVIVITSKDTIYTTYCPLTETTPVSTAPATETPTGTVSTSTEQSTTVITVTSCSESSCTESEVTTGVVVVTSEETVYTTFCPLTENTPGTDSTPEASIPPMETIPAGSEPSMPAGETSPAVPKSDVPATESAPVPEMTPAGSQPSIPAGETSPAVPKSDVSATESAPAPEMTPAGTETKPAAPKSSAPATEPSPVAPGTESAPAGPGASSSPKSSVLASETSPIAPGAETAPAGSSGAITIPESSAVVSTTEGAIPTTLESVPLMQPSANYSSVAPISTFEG

B1: recombinant Candida albicans glyceraldehyde 3-phosphate dehydrogenase (enzyme, C. albicans, UniProt Q5ADM7 1-335, looked up)
chain: MAIKIGINGFGRIGRLVLRVALGRKDIEVVAVNDPFIAPDYAAYMFKYDSTHGRYKGEVTASGDDLVIDGHKIKVFQERDPANIPWGKSGVDYVIESTGVFTKLEGAQKHIDAGAKKVIITAPSADAPMFVVGVNEDKYTPDLKIISNASCTTNCLAPLAKVVNDTFGIEEGLMTTVHSITATQKTVDGPSHKDWRGGRTASGNIIPSSTGAAKAVGKVIPELNGKLTGMSLRVPTTDVSVVDLTVRLKKAASYEEIAQAIKKASEGPLKGVLGYTEDAVVSTDFLGSSYSSIFDEKAGILLSPTFVKLISWYDNEYGYSTRVVDLLEHVAKASA
modifications: biotin (NHS-biotin) in the microplate and yeast-cell binding assays; Alexa Fluor 647 in flow cytometry
notes: no tag (pLATE11); By gel filtration predominantly a tetramer, with marked proportions of dimers and monomers; The forward primer carries ATGATG (the vector adapter's ATG and the gene's own), so an extra N-terminal Met may be present; also called CaGAPDH; GAPDH; source: E. coli Rosetta 2 (DE3), pLATE11, purified (ammonium sulfate fractionation, ResourceQ)
stoichiometry N [1]: 4 and 2 | Kd [2]: 95.9 nM | Kd [3]: 1250 nM | Kd [4]: 715 nM
